Target: the molecule itself
Experiment: SEC

B1: DesVII-C-His6/DesVIII-N-Stag heterodimer (complex, Streptomyces venezuelae)
chain 1: MRVLLTSFAHHTHYYGLVPLAWALLAAGHEVRVASQPALTDTITGSGLAAVPVGTDHLIHEYRVRMAGEPRPNHPAIAFDEARPEPLDWDHALGIEAILAPYFYLLANNDSMVDDLVDFARSWQPDLVLWEPTTYAGAVAAQVTGAAHARVLWGPDVMGSARRKFVALRDRQPPEHREDPTAEWLTWTLDRYGASFEEELLTGQFTIDPTPPSLRLDTGLPTVGMRYVPYNGTSVVPDWLSEPPARPRVCLTLGVSAREVLGGDGVSQGDILEALADLDIELVATLDASQRAEIRNYPKHTRFTDFVPMHALLPSCSAIIHHGGAGTYATAVINAVPQVMLAELWDAPVKARAVAEQGAGFFLPPAELTPQAVRDAVVRILDDPSVATAAHRLREETFGDPTPAGIVPELERLAAQHRRPPADARH
chain 2: MTDDLTGALTQPPLGRTVRAVADRELGTHLLETRGIHWIHAANGDPYATVLRGQADDPYPAYERVRARGALSFSPTGSWVTADHALAASILCSTDFGVSGADGVPVPQQVLSYGEGCPLEREQVLPAAGDVPEGGQRAVVEGIHRETLEGLAPDPSASYAFELLGGFVRPAVTAAAAAVLGVPADRRADFADLLERLRPLSDSLLAPQSLRTVRAADGALAELTALLADSDDSPGALLSALGVTAAVQLTGNAVLALLAHPEQWRELCDRPGLAAAAVEETLRYDPPVQLDARVVRGETELAGRRLPAGAHVVVLTAATGRDPEVFTDPERFDLARPDAAAHLALHPAGPYGPVASLVRLQAEVALRTLAGRFPGLRQAGDVLRPRRAPVGRGPLSVPVSSS
- stoichiometry N: 3 heterodimers in the complex

— publication PMC2939310 (Biochemistry, 2010)
